Key:
[1] = target: neural retina leucine zipper (NRL), V5-tagged (UniProt P54845); experiment: co-immunoprecipitation, band densitometry normalized to input; conditions: COS-1 cells cotransfected; IP goat anti-V5; detection mouse anti-Xpress; parent: est. 100; read off a plot
[2] = target: cone-rod homeobox (CRX), V5-tagged (UniProt O43186); experiment: as above; conditions: COS-1 cells cotransfected; detection mouse anti-Xpress; parent: est. 100; read off a plot
Chain of cone-rod homeobox (CRX), V5-tagged (O43186 whole entry): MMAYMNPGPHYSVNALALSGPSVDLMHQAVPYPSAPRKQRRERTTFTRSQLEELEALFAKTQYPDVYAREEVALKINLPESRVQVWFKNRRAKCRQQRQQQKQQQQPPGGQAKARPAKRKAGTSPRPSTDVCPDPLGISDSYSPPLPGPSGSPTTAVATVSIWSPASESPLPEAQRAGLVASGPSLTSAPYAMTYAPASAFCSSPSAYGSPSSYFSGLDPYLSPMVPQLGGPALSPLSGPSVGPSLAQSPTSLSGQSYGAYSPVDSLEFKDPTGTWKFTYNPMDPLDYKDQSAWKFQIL

Chain of neural retina leucine zipper (NRL), V5-tagged (P54845 whole entry): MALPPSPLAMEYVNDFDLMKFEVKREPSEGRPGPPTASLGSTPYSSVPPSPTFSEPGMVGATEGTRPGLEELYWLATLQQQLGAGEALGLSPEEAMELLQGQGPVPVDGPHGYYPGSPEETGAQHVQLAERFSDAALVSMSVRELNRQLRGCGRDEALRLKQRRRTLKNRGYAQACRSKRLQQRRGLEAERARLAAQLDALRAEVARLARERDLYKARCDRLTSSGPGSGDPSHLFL
Chain of photoreceptor-specific nuclear receptor NR2E3 (nuclear receptor subfamily 2 group E member 3), wild type, Q9Y5X4-1 p.R309G (Q9Y5X4 whole entry R309G): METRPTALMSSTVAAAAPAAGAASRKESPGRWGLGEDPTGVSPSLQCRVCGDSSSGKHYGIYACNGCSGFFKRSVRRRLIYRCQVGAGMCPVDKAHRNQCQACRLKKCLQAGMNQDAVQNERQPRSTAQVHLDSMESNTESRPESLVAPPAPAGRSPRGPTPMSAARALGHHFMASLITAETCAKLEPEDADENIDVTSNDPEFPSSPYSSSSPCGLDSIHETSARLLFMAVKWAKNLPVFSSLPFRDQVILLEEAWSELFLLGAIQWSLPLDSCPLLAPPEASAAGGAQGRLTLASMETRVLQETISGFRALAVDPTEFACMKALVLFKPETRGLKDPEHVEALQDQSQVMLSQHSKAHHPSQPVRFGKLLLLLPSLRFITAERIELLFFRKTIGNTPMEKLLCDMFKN
Chain of photoreceptor-specific nuclear receptor NR2E3 (nuclear receptor subfamily 2 group E member 3), wild type, Q9Y5X4-1 p.L353V (Q9Y5X4 whole entry L353V): as the sequence (Q9Y5X4 whole entry R309G) above, with G309R, L353V counted along it
Chain of photoreceptor-specific nuclear receptor NR2E3 (nuclear receptor subfamily 2 group E member 3), wild type, Q9Y5X4-1 p.V232I (Q9Y5X4 whole entry V232I): as the sequence (Q9Y5X4 whole entry R309G) above, with V232I, G309R counted along it
Chain of photoreceptor-specific nuclear receptor NR2E3 (nuclear receptor subfamily 2 group E member 3), wild type, Q9Y5X4-1 p.L336P (Q9Y5X4 whole entry L336P): as the sequence (Q9Y5X4 whole entry R309G) above, with G309R, L336P counted along it
Chain of photoreceptor-specific nuclear receptor NR2E3 (nuclear receptor subfamily 2 group E member 3), wild type, Q9Y5X4-1 p.R104Q (Q9Y5X4 whole entry R104Q): as the sequence (Q9Y5X4 whole entry R309G) above, with R104Q, G309R counted along it
Chain of photoreceptor-specific nuclear receptor NR2E3 (nuclear receptor subfamily 2 group E member 3), wild type, Q9Y5X4-1 p.R76Q (Q9Y5X4 whole entry R76Q): as the sequence (Q9Y5X4 whole entry R309G) above, with R76Q, G309R counted along it
Chain of photoreceptor-specific nuclear receptor NR2E3 (nuclear receptor subfamily 2 group E member 3), wild type, Q9Y5X4-1 p.R385P (Q9Y5X4 whole entry R385P): as the sequence (Q9Y5X4 whole entry R309G) above, with G309R, R385P counted along it
Chain of photoreceptor-specific nuclear receptor NR2E3 (nuclear receptor subfamily 2 group E member 3), wild type, Q9Y5X4-1 p.R76W (Q9Y5X4 whole entry R76W): as the sequence (Q9Y5X4 whole entry R309G) above, with R76W, G309R counted along it
Chain of photoreceptor-specific nuclear receptor NR2E3 (nuclear receptor subfamily 2 group E member 3), wild type, Q9Y5X4-1 p.A256E (Q9Y5X4 whole entry A256E): as the sequence (Q9Y5X4 whole entry R309G) above, with A256E, G309R counted along it
Chain of photoreceptor-specific nuclear receptor NR2E3 (nuclear receptor subfamily 2 group E member 3), wild type, Q9Y5X4-1 p.G88V (Q9Y5X4 whole entry G88V): as the sequence (Q9Y5X4 whole entry R309G) above, with G88V, G309R counted along it

“photoreceptor-specific nuclear receptor NR2E3 (nuclear receptor subfamily 2 group E member 3), wild type, Q9Y5X4-1 p.A256E” gave a percent of parent [1] of 62% and a percent of parent [2] of 55%.

For “photoreceptor-specific nuclear receptor NR2E3 (nuclear receptor subfamily 2 group E member 3), wild type, Q9Y5X4-1 p.E121K”, the percent of parent [1] was 120% and the percent of parent [2] was 87%.

“photoreceptor-specific nuclear receptor NR2E3 (nuclear receptor subfamily 2 group E member 3), wild type, Q9Y5X4-1 p.G56R” gave a percent of parent [1] of 110% and a percent of parent [2] of 48%.

For “photoreceptor-specific nuclear receptor NR2E3 (nuclear receptor subfamily 2 group E member 3), wild type, Q9Y5X4-1 p.G88V”, the percent of parent [1] was 110% and the percent of parent [2] was 99%.

“photoreceptor-specific nuclear receptor NR2E3 (nuclear receptor subfamily 2 group E member 3), wild type, Q9Y5X4-1 p.L263P” showed a percent of parent [1] of 16% and a percent of parent [2] of 24%.

“photoreceptor-specific nuclear receptor NR2E3 (nuclear receptor subfamily 2 group E member 3), wild type, Q9Y5X4-1 p.L336P” gave a percent of parent [1] of 10% and a percent of parent [2] of 32%.

“photoreceptor-specific nuclear receptor NR2E3 (nuclear receptor subfamily 2 group E member 3), wild type, Q9Y5X4-1 p.L353V” showed a percent of parent [1] of 10% and a percent of parent [2] of 30%.

With “photoreceptor-specific nuclear receptor NR2E3 (nuclear receptor subfamily 2 group E member 3), wild type, Q9Y5X4-1 p.M407K” the percent of parent [1] was 61% and the percent of parent [2] was 76%.

“photoreceptor-specific nuclear receptor NR2E3 (nuclear receptor subfamily 2 group E member 3), wild type, Q9Y5X4-1 p.N65_C67del” showed a percent of parent [1] of 100% and a percent of parent [2] of 84%.

Work on “photoreceptor-specific nuclear receptor NR2E3 (nuclear receptor subfamily 2 group E member 3), wild type, Q9Y5X4-1 p.R76Q” yielded a percent of parent [1] of 110% and a percent of parent [2] of 95%.

In the case of “photoreceptor-specific nuclear receptor NR2E3 (nuclear receptor subfamily 2 group E member 3), wild type, Q9Y5X4-1 p.R76W”, the percent of parent [1] is reported as 98% and the percent of parent [2] is reported as 88%.

In the case of “photoreceptor-specific nuclear receptor NR2E3 (nuclear receptor subfamily 2 group E member 3), wild type, Q9Y5X4-1 p.R97H”, the percent of parent [1] is reported as 110% and the percent of parent [2] is reported as 43%.

For “photoreceptor-specific nuclear receptor NR2E3 (nuclear receptor subfamily 2 group E member 3), wild type, Q9Y5X4-1 p.R104Q”, the percent of parent [1] was 100% and the percent of parent [2] was 42%.

Substance “photoreceptor-specific nuclear receptor NR2E3 (nuclear receptor subfamily 2 group E member 3), wild type, Q9Y5X4-1 p.R309G” has a percent of parent [1] of 37% and a percent of parent [2] of 55%.

With “photoreceptor-specific nuclear receptor NR2E3 (nuclear receptor subfamily 2 group E member 3), wild type, Q9Y5X4-1 p.R311Q” the percent of parent [1] was 74% and the percent of parent [2] was 44%.

“photoreceptor-specific nuclear receptor NR2E3 (nuclear receptor subfamily 2 group E member 3), wild type, Q9Y5X4-1 p.R334G” gave a percent of parent [1] of 69% and a percent of parent [2] of 81%.

With “photoreceptor-specific nuclear receptor NR2E3 (nuclear receptor subfamily 2 group E member 3), wild type, Q9Y5X4-1 p.R385P” the percent of parent [1] was 37% and the percent of parent [2] was 60%.

With “photoreceptor-specific nuclear receptor NR2E3 (nuclear receptor subfamily 2 group E member 3), wild type, Q9Y5X4-1 p.V232I” the percent of parent [1] was 87% and the percent of parent [2] was 87%.

For “photoreceptor-specific nuclear receptor NR2E3 (nuclear receptor subfamily 2 group E member 3), wild type, Q9Y5X4-1 p.V302I”, the percent of parent [1] was 56% and the percent of parent [2] was 86%.

For “photoreceptor-specific nuclear receptor NR2E3 (nuclear receptor subfamily 2 group E member 3), wild type, Q9Y5X4-1 p.W234S”, the percent of parent [1] was 58% and the percent of parent [2] was 95%.
